Data as given in patent US20210238302A1, “HIGH AFFINITY MONOCLONAL ANTIBODIES (MABS) AGAINST CELL SURFACE EXPRESSED HUMAN CARBONIC ANHYDRASE IX (HCA-IX), AND USES THEREOF” (NATIONAL RESEARCH COUNCIL OF CANADA, priority 2018, published 2021).

Test system: hCA-IX ECD fragments
Test: Epitope mapping by Yeast Surface Display (whole yeast cell ELISA)
Type: binding, human
Set-up: key: −: no binding; +: binding
Procedure: Yeast Surface Display (YSD; developed by the Wittrup lab) is used for presenting properly folded (ensured by the “quality-control” processes of the secretory pathway of the yeast) antigen fragments on the yeast cell surface through covalent linkage (FIG. 15A). […] The epitope mapping of the mAbs was performed using a whole yeast cell ELISA protocol. […] These experiments were performed on native and denatured yeast cells, where in both cases binding of each mAb was normalized to the anti-MYC signal. The ratio of each normalized anti-CA-IX mAb signal of native versus denatured hCA-IX peptide is thus indicative of the conformational nature of the mAb binding epitope. In the native hCA-IX experiments the commercial M75 mAb was used as a positive control; the epitope of this mAb is known (Zavada et al., 2000) and is located in hCA-IX's PG domain.

Measured: Anti-CA-IX Ab binding intensity (normalized on CA-IX_MYC expression on cells)

B1: 9B6: mouse IgG2b monoclonal antibody inhibiting hCA-IX catalytic activity; SEQ ID NO.14 and 18; hybridoma-derived and recombinant (SEQ ID NO. 24 and 25) (antibody, V domains shown)
VL: DIVLTQSPSSLAVSLGQRATISCKASQSVDYDGNSYMNWFQQKPGQPPKLLIYEASSLESGIPARISGSGSGTDFTLNIHPVEEEDAATYYCQQSYEGPYTFGGGTKLEIK
VH: QVQLQQPGAELVKPGASVKLSCKASGYIFTTKWINWVKQRPGQGLEWIGNIYPGSSNTYYNEKFKNKATLTVDKSSNTAHLQLSSLTSEDSAVYYCARGIANWGQGTPVTVSA
−: Denatured CA-IX protein, EBY100, No-plasmid, Strain Ctrl, Neg Ctrl (PNL6 series) | Denatured CA-IX protein, EBY100, No-plasmid, Strain Ctrl, Neg Ctrl (PNL200 series) | Denatured CA-IX protein, clone 1A, PNL6, Aga2-HA-CA9-MYC, fragment 1, aa 52-111, PG | Denatured CA-IX protein, clone 2B, PNL6, Aga2-HA-CA9-MYC, fragment 2, aa 38-136, +PG+ | Denatured CA-IX protein, clone 3A, PNL6, Aga2-HA-CA9-MYC, fragment 3, aa 1-136, SP+PG+ | Denatured CA-IX protein, clone 11B, PNL6, Aga2-HA-X-MYC, Plasmid Ctrl, Neg Ctrl | Denatured CA-IX protein, clone 12B, PNL200, CA9-Aga2-MYC, fragment 1, aa 52-111, PG | Denatured CA-IX protein, clone 13A, PNL200, CA9-Aga2-MYC, fragment 2, aa 38-136, +PG+ | Denatured CA-IX protein, clone 14A, PNL200, CA9-Aga2-MYC, fragment 3, aa 1-136, SP+PG+ | Denatured CA-IX protein, clone 22A, PNL200, X-Aga2-MYC, Plasmid Ctrl, Neg Ctrl | Native CA-IX protein, EBY100, No-plasmid, Strain Ctrl, Neg Ctrl (PNL6 series) | Native CA-IX protein, EBY100, No-plasmid, Strain Ctrl, Neg Ctrl (PNL200 series) | Native CA-IX protein, clone 1A, PNL6, Aga2-HA-CA9-MYC, fragment 1, aa 52-111, PG | Native CA-IX protein, clone 2B, PNL6, Aga2-HA-CA9-MYC, fragment 2, aa 38-136, +PG+ | Native CA-IX protein, clone 3A, PNL6, Aga2-HA-CA9-MYC, fragment 3, aa 1-136, SP+PG+ | Native CA-IX protein, clone 11B, PNL6, Aga2-HA-X-MYC, Plasmid Ctrl, Neg Ctrl | Native CA-IX protein, clone 12B, PNL200, CA9-Aga2-MYC, fragment 1, aa 52-111, PG | Native CA-IX protein, clone 13A, PNL200, CA9-Aga2-MYC, fragment 2, aa 38-136, +PG+ | Native CA-IX protein, clone 14A, PNL200, CA9-Aga2-MYC, fragment 3, aa 1-136, SP+PG+ | Native CA-IX protein, clone 22A, PNL200, X-Aga2-MYC, Plasmid Ctrl, Neg Ctrl
